Test results reported in publication PMC8446450, “Autosomal Recessive Cutis Laxa 1C Mutations Disrupt the Structure and Interactions of Latent TGFβ Binding Protein-4” (Frontiers in Genetics, 2021).

T1: Tropoelastin (SHELdelta26A) (biotin where immobilised on streptavidin biosensors (position not given))
T1 chain: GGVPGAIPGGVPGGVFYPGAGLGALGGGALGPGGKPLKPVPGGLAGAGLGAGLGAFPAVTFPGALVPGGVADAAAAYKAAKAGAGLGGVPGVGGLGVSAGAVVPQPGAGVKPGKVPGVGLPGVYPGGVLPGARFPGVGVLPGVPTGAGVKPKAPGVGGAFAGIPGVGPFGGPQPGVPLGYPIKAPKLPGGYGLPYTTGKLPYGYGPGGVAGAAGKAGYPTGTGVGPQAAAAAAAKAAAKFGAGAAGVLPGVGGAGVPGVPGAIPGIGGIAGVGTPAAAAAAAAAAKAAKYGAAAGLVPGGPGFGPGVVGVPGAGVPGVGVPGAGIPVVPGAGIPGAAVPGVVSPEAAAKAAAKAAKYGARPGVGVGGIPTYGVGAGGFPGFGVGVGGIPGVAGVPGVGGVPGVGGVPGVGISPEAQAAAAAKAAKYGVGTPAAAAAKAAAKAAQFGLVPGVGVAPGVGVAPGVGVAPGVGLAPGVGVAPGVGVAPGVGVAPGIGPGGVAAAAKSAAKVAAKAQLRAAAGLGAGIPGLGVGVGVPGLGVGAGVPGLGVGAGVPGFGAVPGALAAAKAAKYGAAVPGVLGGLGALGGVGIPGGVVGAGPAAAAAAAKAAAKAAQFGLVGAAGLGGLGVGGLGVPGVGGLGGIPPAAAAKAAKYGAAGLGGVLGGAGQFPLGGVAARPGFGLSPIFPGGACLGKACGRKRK

B1: Latent TGFβ binding protein-4 (LTBP4S) C-terminal region, ARCL1C mutant C1186R (domain or fragment)
chain: RECYFDTAAPDACDNILARNVTWQECCCTVGEGWGSGCRIQQRPGTETAEYQSLCPHGRGYLAPSGDLSLRRDVDECQLFRDQVCKSGVCVNTAPGYSCYCSNGYYYHTQRLECIDNDECADEEPACEGGRCVNTVGSYHCTCEPPLVLDGSQRRCVSNESQSLDDNLGVCWQEVGADLVCSHPRLDRQATYTECCCLYGEAWGMDCALCPAQDSDDFEALCNVLRPPAYSPPRPGGFGLPYEYGPDLGPPYQGLPYGPELYPPPALPYDPYPPPPGPFARREAPYGAPRFDMPDFEDDGGPYGESEAPAPPGPGTRWPYRSRDTRRSFPEPEEPPEGGSYAGSLAEPYEELEAEECGILDGCTNGRCVRVPEGFTCRCFDGYRLDMTRMACVDINECDEAEAASPLCVNARCLNTDGSFRCICRPGFAPTHQPHHCAPARPRA

Assays:
[1] = target: Latent TGFβ binding protein-4 (LTBP4S) C-terminal region, ARCL1C mutant C1186R (human); experiment: SPR; ProteOn, LTBP4 C-terminal constructs amine-coupled on GLC chip, fibrillin-1 PF3 injected 100-3.1 nM, 10 mM HEPES, 150 mM NaCl, pH 7.4, 0.005% Tween-20, 25°C; steady state (equilibrium) analysis
[2] = target: T1, Tropoelastin (SHELdelta26A); experiment: BLI
[3] = target: Tropoelastin (SHELdelta26A); experiment: BLI; OctetRED96, biotinylated tropoelastin on streptavidin biosensors, LTBP4 C-terminal constructs 375-23.4 nM, 10 mM HEPES, 150 mM NaCl, pH 7.4, 0.005% Tween-20, 25°C; steady state analysis

Molecule	Kd [1]	Kd [2]	Kd [3]
Fibrillin-1 PF3 fragment (from UniProt P35555 45-722) (domain or fragment)	0.0402 µM		
B1		0.0559 µM	0.154 µM
